Assays:
[1] = molecular target: deletion mutant Δ771-827 of Eg (mouse; human) (UniProt P14753); test: co-immunoprecipitation with anti-Hck, anti-His blot, Cos-7 lysates (FIG. 5A)
[2] = molecular target: deletion mutant Δ771-827 of Eg (mouse; human) (UniProt P14753); test: co-immunoprecipitation with anti-Hck, anti-His blot, Cos-7 lysates (FIG. 5B)
[3] = molecular target: DDM mutant (double point and deletion mutant) of Eg (mouse; human) (UniProt P14753); test: co-immunoprecipitation with anti-Hck, anti-His blot, Cos-7 lysates (FIG. 6)
[4] = molecular target: deletion mutant Δ771-827 of Eg (mouse; human) (UniProt P14753); test: as above
[5] = system: IL-6 dependent murine cell line 7TD-1; test: IL-6 induced cell proliferation of 7TD-1 cells incubated with peptides, microscopic cell counting; format: cell-based; details: 7TD-1 stimulated with 40 pg IL-6, 100 μM peptide, 4 days, compared with untreated or unstimulated cells
Procedure: Subfragments of the previously described 41 amino acid Hck binding domain of gp130 were used to narrow down the essential parts of this domain. The subfragments, which are shown in FIG. 12, were synthesized by solid phase synthesis, N-terminally coupled to myristate in order to render them membrane soluble, and diluted in DMSO. A MM-cell line was incubated with the different peptides and cell proliferation was measured.
To determine the effects of the different peptides on IL-6 induced cell proliferation, the IL-6 dependent murine cell line 7TD-1 was stimulated with 40 pg of IL-6 and incubated with 100 μM of the different peptides. After 4 days, the cell proliferation was determined by microscopic cell counting.

Row | decrease of Hck co-precipitation with gp130 [1] [%] | loss of gp130 co-precipitation with Hck [2] [%] | reduction of Hck binding to gp130 [3] [%] | reduction of Hck binding to gp130 [4] [%] | Substance | cell proliferation [5]
1 | > 90 | 90 | > 90 | > 90 | Hck tyrosine kinase (wild type Hck, expressed from pcDNA3-Hck or pDpuro-Hck) (from UniProt P08631 2-526) (enzyme) | 
2 |  |  |  |  | LLDSEERPEDLQLVD [compound 6] | down regulation of cell proliferation to the basal level
3 |  |  |  |  | TQPLLDSEERPEDLQLVD [compound 2] | down regulation of cell proliferation to the basal level

Reference: US7078478B2, “Inhibition of the proliferation of cells of the multiple myeloma” (GSF-Forschungszentrum für Umwelt Gesundheit, GmbH, priority 1999, dated 2006)
